According to patent publication US20220040297A1 (Chugai, published 2022):
Numbering of substitutions follows the chain as printed. Blank lines part the entries; values can stand above or below the binder they belong to.

Molecular target: CD3ε homodimer protein (human, UniProt P07766 23-126, limits assumed)
Assay: SPR, immobilized CD3ε homodimer;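 also: biacore T200 surface plasmon resonance at 25 °C, antibody variants flowed as analytes over amine-coupled CD3ε homodimer on a CM4 chip, variant binding amount divided by that of GLS3000 antibody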

Sequence of CD3ε homodimer protein (P07766 23-126 limits assumed): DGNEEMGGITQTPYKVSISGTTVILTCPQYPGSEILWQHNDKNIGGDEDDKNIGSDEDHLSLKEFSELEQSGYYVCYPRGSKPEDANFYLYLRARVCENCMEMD

B1: GLS3000 G91Y (antibody, name in Kabat numbering, V domains shown)
VH: QVQLVESGGGVVQPGRSLRLSCAASGFTFSNAWMHWVRQAPGKGLEWVAQIKAKSNNYATYYAESVKGRFTISRDDSKNSLYLQMNSLKTEDTAVYYCRYVHYGAYYGVDAWGQGTTVTVSS
VL: DIVMTQSPLSLPVTPGEPASISCRSSQSLVHSNRNTYLHWYQQKPGQAPRLLIYKVSNRFSGVPDRFSGSGSGTDFTLKISRVEAEDVGVYYCGQYTQVPYTFGQGTKLEIK
notes: one-arm format as m2
ratio of amounts bound (vs GLS3000): 0.17

B2: GLS3000 H34L (antibody, name in Kabat numbering, V domains shown)
VH: B1 VH
VL: B1 VL with H39L, Y96G
notes: one-arm format as m2
ratio of amounts bound (vs GLS3000): 0.59

B3: GLS3000 K50S (antibody, name in Kabat numbering, V domains shown)
VH: B1 VH
VL: B1 VL with K55S, Y96G
notes: one-arm format as m2
ratio of amounts bound (vs GLS3000): 0.23

B5: GLS3000 K50L (antibody, name in Kabat numbering, V domains shown)
VH: B1 VH
VL: B1 VL with K55L, Y96G
notes: one-arm format as m2
ratio of amounts bound (vs GLS3000): 0.24

B10: GLS3000 H27dA (antibody, name in Kabat numbering, V domains shown)
VH: B1 VH
VL: B1 VL with H31A, Y96G
notes: one-arm format as m2
ratio of amounts bound (vs GLS3000): 0.48

B14: GLS3000 H27dR (antibody, name in Kabat numbering, V domains shown)
VH: B1 VH
VL: B1 VL with H31R, Y96G
notes: one-arm format as m2
ratio of amounts bound (vs GLS3000): 0.31

B16: GLS3000 H27dQ (antibody, name in Kabat numbering, V domains shown)
VH: B1 VH
VL: B1 VL with H31Q, Y96G
notes: one-arm format as m2
ratio of amounts bound (vs GLS3000): 0.25

B19: GLS3000 H34A (antibody, name in Kabat numbering, V domains shown)
VH: B1 VH
VL: B1 VL with H39A, Y96G
notes: one-arm format as m2
ratio of amounts bound (vs GLS3000): 1.06

B21: GLS3000 H34S (antibody, name in Kabat numbering, V domains shown)
VH: B1 VH
VL: B1 VL with H39S, Y96G
notes: one-arm format as m2
ratio of amounts bound (vs GLS3000): 0.78

B24: GLS3000 K50D (antibody, name in Kabat numbering, V domains shown)
VH: B1 VH
VL: B1 VL with K55D, Y96G
notes: one-arm format as m2
ratio of amounts bound (vs GLS3000): 0.22

B25: GLS3000 H27dE (antibody, name in Kabat numbering, V domains shown)
VH: B1 VH
VL: B1 VL with H31E, Y96G
notes: one-arm format as m2
ratio of amounts bound (vs GLS3000): 0.23

B28: GLS3000 K50R (antibody, name in Kabat numbering, V domains shown)
VH: B1 VH
VL: B1 VL with K55R, Y96G
notes: one-arm format as m2
ratio of amounts bound (vs GLS3000): 0.5

B29: GLS3000 H27dW (antibody, name in Kabat numbering, V domains shown)
VH: B1 VH
VL: B1 VL with H31W, Y96G
notes: one-arm format as m2
ratio of amounts bound (vs GLS3000): 0.39

B30: GLS3000 H34Q (antibody, name in Kabat numbering, V domains shown)
VH: B1 VH
VL: B1 VL with H39Q, Y96G
notes: one-arm format as m2
ratio of amounts bound (vs GLS3000): 0.25

B31: GLS3000 H34P (antibody, name in Kabat numbering, V domains shown)
VH: B1 VH
VL: B1 VL with H39P, Y96G
notes: one-arm format as m2
ratio of amounts bound (vs GLS3000): 0.34

B32: GLS3000 H34T (antibody, name in Kabat numbering, V domains shown)
VH: B1 VH
VL: B1 VL with H39T, Y96G
notes: one-arm format as m2
ratio of amounts bound (vs GLS3000): 0.89

B36: GLS3000 H34N (antibody, name in Kabat numbering, V domains shown)
VH: B1 VH
VL: B1 VL with H39N, Y96G
notes: one-arm format as m2
ratio of amounts bound (vs GLS3000): 0.65

B38: GLS3000 H34E (antibody, name in Kabat numbering, V domains shown)
VH: B1 VH
VL: B1 VL with H39E, Y96G
notes: one-arm format as m2
ratio of amounts bound (vs GLS3000): 0.23

B40: GLS3000 H34G (antibody, name in Kabat numbering, V domains shown)
VH: B1 VH
VL: B1 VL with H39G, Y96G
notes: one-arm format as m2
ratio of amounts bound (vs GLS3000): 1.02

B41: GLS3000 H27dT (antibody, name in Kabat numbering, V domains shown)
VH: B1 VH
VL: B1 VL with H31T, Y96G
notes: one-arm format as m2
ratio of amounts bound (vs GLS3000): 0.29

B42: GLS3000 K50P (antibody, name in Kabat numbering, V domains shown)
VH: B1 VH
VL: B1 VL with K55P, Y96G
notes: one-arm format as m2
ratio of amounts bound (vs GLS3000): 0.3

B44: GLS3000 H34V (antibody, name in Kabat numbering, V domains shown)
VH: B1 VH
VL: B1 VL with H39V, Y96G
notes: one-arm format as m2
ratio of amounts bound (vs GLS3000): 0.85

The remaining lines, values ahead:

ratio of amounts bound (vs GLS3000): 0.32
B4: GLS3000 H27dS (antibody, name in Kabat numbering, V domains shown)
VH: B1 VH
VL: B1 VL with H31S, Y96G
notes: one-arm format as m2

ratio of amounts bound (vs GLS3000): 0.19
B6: GLS3000 K50T (antibody, name in Kabat numbering, V domains shown)
VH: B1 VH
VL: B1 VL with K55T, Y96G
notes: one-arm format as m2

ratio of amounts bound (vs GLS3000): 0.22
B7: GLS3000 H27dD (antibody, name in Kabat numbering, V domains shown)
VH: B1 VH
VL: B1 VL with H31D, Y96G
notes: one-arm format as m2

ratio of amounts bound (vs GLS3000): 0.3
B8: GLS3000 H27dL (antibody, name in Kabat numbering, V domains shown)
VH: B1 VH
VL: B1 VL with H31L, Y96G
notes: one-arm format as m2

ratio of amounts bound (vs GLS3000): 0.3
B9: GLS3000 H27dG (antibody, name in Kabat numbering, V domains shown)
VH: B1 VH
VL: B1 VL with H31G, Y96G
notes: one-arm format as m2

ratio of amounts bound (vs GLS3000): 0.16
B11: GLS3000 K50G (antibody, name in Kabat numbering, V domains shown)
VH: B1 VH
VL: B1 VL with K55G, Y96G
notes: one-arm format as m2

ratio of amounts bound (vs GLS3000): 0.18
B12: GLS3000 K50Q (antibody, name in Kabat numbering, V domains shown)
VH: B1 VH
VL: B1 VL with K55Q, Y96G
notes: one-arm format as m2

ratio of amounts bound (vs GLS3000): 0.24
B13: GLS3000 K50E (antibody, name in Kabat numbering, V domains shown)
VH: B1 VH
VL: B1 VL with K55E, Y96G
notes: one-arm format as m2

ratio of amounts bound (vs GLS3000): 0.22
B15: GLS3000 H34D (antibody, name in Kabat numbering, V domains shown)
VH: B1 VH
VL: B1 VL with H39D, Y96G
notes: one-arm format as m2

ratio of amounts bound (vs GLS3000): 0.21
B17: GLS3000 H34W (antibody, name in Kabat numbering, V domains shown)
VH: B1 VH
VL: B1 VL with H39W, Y96G
notes: one-arm format as m2

ratio of amounts bound (vs GLS3000): 0.64
B18: GLS3000 H27dY (antibody, name in Kabat numbering, V domains shown)
VH: B1 VH
VL: B1 VL with H31Y, Y96G
notes: one-arm format as m2

ratio of amounts bound (vs GLS3000): 0.65
B20: GLS3000 H34I (antibody, name in Kabat numbering, V domains shown)
VH: B1 VH
VL: B1 VL with H39I, Y96G
notes: one-arm format as m2

ratio of amounts bound (vs GLS3000): 0.26
B22: GLS3000 H27dI (antibody, name in Kabat numbering, V domains shown)
VH: B1 VH
VL: B1 VL with H31I, Y96G
notes: one-arm format as m2

ratio of amounts bound (vs GLS3000): 0.59
B23: GLS3000 H34Y (antibody, name in Kabat numbering, V domains shown)
VH: B1 VH
VL: B1 VL with H39Y, Y96G
notes: one-arm format as m2

ratio of amounts bound (vs GLS3000): 2.17
B26: GLS3000 H34K (antibody, name in Kabat numbering, V domains shown)
VH: B1 VH
VL: B1 VL with H39K, Y96G
notes: one-arm format as m2

ratio of amounts bound (vs GLS3000): 0.23
B27: GLS3000 K50A (antibody, name in Kabat numbering, V domains shown)
VH: B1 VH
VL: B1 VL with K55A, Y96G
notes: one-arm format as m2

ratio of amounts bound (vs GLS3000): 0.24
B33: GLS3000 H27dP (antibody, name in Kabat numbering, V domains shown)
VH: B1 VH
VL: B1 VL with H31P, Y96G
notes: one-arm format as m2

ratio of amounts bound (vs GLS3000): 0.29
B34: GLS3000 H27dK (antibody, name in Kabat numbering, V domains shown)
VH: B1 VH
VL: B1 VL with H31K, Y96G
notes: one-arm format as m2

ratio of amounts bound (vs GLS3000): 0.2
B35: GLS3000 H34R (antibody, name in Kabat numbering, V domains shown)
VH: B1 VH
VL: B1 VL with H39R, Y96G
notes: one-arm format as m2

ratio of amounts bound (vs GLS3000): 0.35
B37: GLS3000 H34M (antibody, name in Kabat numbering, V domains shown)
VH: B1 VH
VL: B1 VL with H39M, Y96G
notes: one-arm format as m2

ratio of amounts bound (vs GLS3000): 0.3
B39: GLS3000 H27dN (antibody, name in Kabat numbering, V domains shown)
VH: B1 VH
VL: B1 VL with H31N, Y96G
notes: one-arm format as m2

ratio of amounts bound (vs GLS3000): 0.3
B43: GLS3000 H27dV (antibody, name in Kabat numbering, V domains shown)
VH: B1 VH
VL: B1 VL with H31V, Y96G
notes: one-arm format as m2

ratio of amounts bound (vs GLS3000): 0.27
B45: GLS3000 H34F (antibody, name in Kabat numbering, V domains shown)
VH: B1 VH
VL: B1 VL with H39F, Y96G
notes: one-arm format as m2

ratio of amounts bound (vs GLS3000): 0.63
B46: GLS3000 H27dF (antibody, name in Kabat numbering, V domains shown)
VH: B1 VH
VL: B1 VL with H31F, Y96G
notes: one-arm format as m2
